Test results from patent US20180172683A1, “METHODS FOR ANALYZING THE INTERACTION BETWEEN A TARGET PROTEIN AND A LIGAND” (UNIVERSITY OF SOUTHERN CALIFORNIA, priority 2015, published 2018).
Ends that are not written are not given here.

B1: E1, mRNA-peptide fusion in the selection pool (HTSK) (peptide, not shown: a dimerising Fc or GST)
peptide: MIETITIYNYKKAADHFSMSM
modifications: not fully specified; also: C-terminus joined via puromycin to DNA linker and reverse-transcribed mRNA
B2: D79, mRNA-peptide fusion in the doped selection pool (HTSK) (peptide, not shown: a dimerising Fc or GST)
peptide: MIDTNVILNYKKAADHFSITM
modifications: not fully specified; also: C-terminus joined via puromycin to DNA linker and reverse-transcribed mRNA
B3: D1, mRNA-peptide fusion in the selection pool (HTSK) (peptide, not shown: a dimerising Fc or GST)
peptide: MIAISTIYNYKKAADHYAMTK
modifications: not fully specified; also: C-terminus joined via puromycin to DNA linker and reverse-transcribed mRNA

Molecular target: B-cell lymphoma extra-large protein (Bcl-xL), first 209 amino acids with N-terminal avitag (UniProt Q07817)
Assay: HTSK: mRNA-peptide fusion pool on Bcl-xL beads, next-generation sequencing

B-cell lymphoma extra-large protein (Bcl-xL), first 209 amino acids with N-terminal avitag, sequence (Q07817 other isoform, or with tags, fused parts or gaps): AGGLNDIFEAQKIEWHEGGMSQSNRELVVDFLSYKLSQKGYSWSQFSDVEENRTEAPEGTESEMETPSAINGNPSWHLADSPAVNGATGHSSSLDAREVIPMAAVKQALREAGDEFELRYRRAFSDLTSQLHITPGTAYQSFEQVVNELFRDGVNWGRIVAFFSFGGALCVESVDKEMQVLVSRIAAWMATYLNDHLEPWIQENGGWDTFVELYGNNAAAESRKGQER

| Binder | koff [s⁻¹] |
| --- | --- |
| B1 | 2.5e-06 |
| B2 | 3.3e-07 |
| B3 | 1e-06 |

Molecular target: B-cell lymphoma extra-large protein (Bcl-xL), first 209 amino acids with N-terminal avitag (UniProt Q07817)
Assay: HTSK: from on- and off-rates of the mRNA-peptide fusion

| Binder | Kd [nM] |
| --- | --- |
| B1 | 0.023 |
| B2 | 0.0024 |
| B3 | 0.015 |
